Laboratory results reported in PMC3401432.
Like-named read-outs stand apart in the source and are kept apart here.

Legend:
[1] = target: CryB, GAL4 binding domain fusion (pGBK-T7-cryB) (Rhodobacter sphaeroides); assay: two-hybrid
[2] = target: His-CryB, purified from E. coli (Rhodobacter sphaeroides); assay: MST
[3] = target: CryB, GAL4 binding domain fusion (pGBK-T7-cryB) (Rhodobacter sphaeroides); assay: two-hybrid; remark: listed apart in the source

## SCHIC domain of AppA, GAL4 activation domain fusion (pGAD-T7) (domain or fragment)
[1]
  β-galactosidase activity, percent of the SV40 T antigen + p53 control: 8%

B1: MBP-AppA (full-length AppA tagged with maltose-binding protein) (natural protein)
chain: MQHDLEADVTMTGSDLVSCCYRSLAAPDLTLRDLLDIVETSQAHNARAQLTGALFYSQGVFFQWLEGRPAAVAEVMTHIQRDRRHSNVEILAEEPIAKRRFAGWHMQLSCSEADMRSLGLAESRQIVTVGRSLVADNTNIFSFDRIAAVRRFLSDVCAARTLAPDTPVEADTFALYALTEAQAGRSGRAKAVARLSDLLSTDPLGRLTEVEELLRAHAPTAADFARLFEACAERLTRALAEDRISRMQVTLAYSALQMALRRIHHLPDPQKSVGAVLVAGVPGHKPILEAALAAEMLRAVGWSTSVVHPESVAALAARLKTSRTSTLVVAPSLLEGTEQEADTLRFVSALRARTDLPGLSILVGGRLAQLPPSKLKDSGADAGFAHLALLPAALARVACPANADCCSMRACRMPASQCCDKRINPEFLLANVMPSVLTRISSRQDRRRSA
[2]
  Kd: 595 nM

B2: AppA full length, GAL4 activation domain fusion (pGAD-T7-appA) (natural protein)
chain: MQHDLEADVTMTGSDLVSCCYRSLAAPDLTLRDLLDIVETSQAHNARAQLTGALFYSQGVFFQWLEGRPAAVAEVMTHIQRDRRHSNVEILAEEPIAKRRFAGWHMQLSCSEADMRSLGLAESRQIVTVGRSLVADNTNIFSFDRIAAVRRFLSDVCAARTLAPDTPVEADTFALYALTEAQAGRSGRAKAVARLSDLLSTDPLGRLTEVEELLRAHAPTAADFARLFEACAERLTRALAEDRISRMQVTLAYSALQMALRRIHHLPDPQKSVGAVLVAGVPGHKPILEAALAAEMLRAVGWSTSVVHPESVAALAARLKTSRTSTLVVAPSLLEGTEQEADTLRFVSALRARTDLPGLSILVGGRLAQLPPSKLKDSGADAGFAHLALLPAALARVACPANADCCSMRACRMPASQCCDKRINPEFLLANVMPSVLTRISSRQDRRRSA
[3]
  β-galactosidase activity, percent of the SV40 T antigen + p53 control: 40%
